For this assay, the target named is full-length GST-Smad3 (UniProt P84022). The assay is described as follows: pull-down.
UniProt P84022, sequence (P84022 whole entry): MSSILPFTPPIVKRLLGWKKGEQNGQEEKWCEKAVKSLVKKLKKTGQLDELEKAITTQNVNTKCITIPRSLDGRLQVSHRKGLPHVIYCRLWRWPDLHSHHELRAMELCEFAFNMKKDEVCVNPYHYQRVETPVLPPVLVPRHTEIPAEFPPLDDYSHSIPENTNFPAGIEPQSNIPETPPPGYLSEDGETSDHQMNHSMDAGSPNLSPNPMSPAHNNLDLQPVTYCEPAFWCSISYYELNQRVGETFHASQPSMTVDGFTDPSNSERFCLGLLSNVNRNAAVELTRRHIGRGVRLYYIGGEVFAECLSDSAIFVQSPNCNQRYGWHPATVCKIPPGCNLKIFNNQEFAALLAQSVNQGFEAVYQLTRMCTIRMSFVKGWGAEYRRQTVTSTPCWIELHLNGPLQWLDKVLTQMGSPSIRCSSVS

Substance “intracellular Notch1 (ICN1), the active form of Notch1 (domain or fragment)” returned a fold increase of binding in β2SP shRNA cells against control cells of 2 fold.

The values above are taken from article PMC3745222.
